These results are taken from article PMC12273574, “Biochemical and structural characterization of a GNAT superfamily protein acetyltransferase from Helicobacter pylori” (The Journal of Biological Chemistry, 2025).

What all share (test): purified protein
Substrate in data set [1]: CC(=O)NCCCC[C@H](N)C(=O)O
The settings on record: 14C-ACO, 800 nM enzyme; Nα-amino group acetylated; unit μM as printed beside mM for the Nα-acetyl isomer.

Substrate in data set [2]: CC(=O)SCCNC(=O)CCNC(=O)[C@H](O)C(C)(C)COP(=O)(O)OP(=O)(O)OC[C@H]1O[C@@H](n2cnc3c(N)ncnc32)[C@H](O)[C@@H]1OP(=O)(O)O
The following applies: 50 mM lysine, 5-50 μM 14C-ACO, 800 nM enzyme, pH 8.0, 30 °C; labelled compound; pH 8.0; 30.0 °C.

Substrate in data set [3]: NCCCC[C@H](N)C(=O)O
The following applies: 50 μM 14C-ACO, 1-50 mM lysine, 800 nM enzyme, pH 8.0, 30 °C; pH 8.0; 30.0 °C.

B1: HP0935 (Helicobacter pylori 26695) (protein)
chain: MTIKVFSPKYPTELEEFYAERIADNPLGFIQRLDLLPSISGFVQKLREHGGEFFEMREGNKLIGICGLNPINQTEAELCKFHINSAYQSQGLGQKLYESVEKYAFIKGYTKISLHVSKSQIKACNLYQKLGFVHIKEEDCVVELGEETLIFPTLFMEKILS
B1: the Km (usually the concentration of substrate that gives half-maximal velocity) in data set [1] turned out to be 26.71 µM; in data set [2], 21.44 µM; in data set [3], 31310 µM.
